According to publication PMC5056641:
pKi: −log10 of the molar value.

Biological target: His-CLK1(ΔN) (mouse)
Assay: kinetic competition

SRSF1 (His-tagged), sequence (Q07955 whole entry): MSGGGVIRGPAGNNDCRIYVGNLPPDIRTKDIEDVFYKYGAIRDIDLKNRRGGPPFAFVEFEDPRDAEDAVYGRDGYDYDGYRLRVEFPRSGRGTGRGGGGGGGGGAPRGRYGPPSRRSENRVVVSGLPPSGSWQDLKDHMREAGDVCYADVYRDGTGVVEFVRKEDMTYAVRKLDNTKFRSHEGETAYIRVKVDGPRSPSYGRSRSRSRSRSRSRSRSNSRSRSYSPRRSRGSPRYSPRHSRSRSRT

pKi: 6.52
Substance: SRSF1 (His-tagged) (from UniProt Q07955 1-248) (natural protein)
